# Numbering of substitutions follows the chain as printed. Numbers in names are those of the source.
# T1: recombinant mouse GITR-Fc (mouse, UniProt O35714 20-153, limits assumed)
# T1 construct: Bought reagent; construct not described; not shown: Fc
# T1 sequence (looked up): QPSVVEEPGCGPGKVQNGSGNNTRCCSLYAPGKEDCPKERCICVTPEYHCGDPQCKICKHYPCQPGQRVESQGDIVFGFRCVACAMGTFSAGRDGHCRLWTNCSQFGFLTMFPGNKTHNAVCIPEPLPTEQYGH
# T2: human GITR-Fc (human, UniProt Q9Y5U5 26-162, conjugated with europium cryptate in the HTRF assays)
# T2 construct: also called hGITR-Fc; hGITRFc; not shown: Fc domain of hIgG1
# T2 sequence: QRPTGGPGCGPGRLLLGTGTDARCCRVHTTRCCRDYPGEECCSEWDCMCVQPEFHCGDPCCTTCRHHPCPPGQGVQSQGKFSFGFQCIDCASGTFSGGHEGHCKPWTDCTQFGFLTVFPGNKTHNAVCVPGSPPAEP
# T3: human GITR expressed on cells (human, UniProt Q9Y5U5 26-241)
# T3 sequence: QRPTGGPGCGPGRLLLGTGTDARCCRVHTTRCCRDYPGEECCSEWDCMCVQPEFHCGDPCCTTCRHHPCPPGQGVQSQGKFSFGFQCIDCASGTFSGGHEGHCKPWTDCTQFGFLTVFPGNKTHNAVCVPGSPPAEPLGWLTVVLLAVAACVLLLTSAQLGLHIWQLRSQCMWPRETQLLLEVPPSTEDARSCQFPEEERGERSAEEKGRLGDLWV
# T4: recombinant mouse OX40-Fc (mouse, UniProt P47741 20-211, limits assumed)
# T4 construct: Bought reagent; construct not described; not shown: Fc
# T4 sequence (looked up): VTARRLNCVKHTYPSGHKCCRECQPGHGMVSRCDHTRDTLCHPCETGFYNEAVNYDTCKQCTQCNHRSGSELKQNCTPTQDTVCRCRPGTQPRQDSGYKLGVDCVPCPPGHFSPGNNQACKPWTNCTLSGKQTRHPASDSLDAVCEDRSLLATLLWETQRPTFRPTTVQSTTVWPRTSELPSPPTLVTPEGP
# B1: mOX40L-FP mIgG1 (Fc fusion)
# chain: VPRDCGCKPCICTVPEVSSVFIFPPKPKDVLTITLTPKVTCVVVDISKDDPEVQFSWFVDDVEVHTAQTQPREEQFNSTFRSVSELPIMHQDWLNGKEFKCRVNSAAFPAPIEKTISKTKGRPKAPQVYTIPPPKEQMAKDKVSLTCMITDFFPEDITVEWQWNGQPAENYKNTQPIMDTDGSYFVYSKLNVQKSNWEAGNTFTCSVLHEGLHNHHTEKSLSHSPGKRLDQDKIEALSNKVQQLERSIGLKDLAMADLEQKVSELEVSTSSPAKDPPIQRLRGAVTRCEDGQLFISSYKNEYQTMEVQNNSVVIKCDGLYIIYLKGSFFQEVKIDLHFREDHNPISIPMLNDGRRIVFTVVASLAFKDKVYLTVNAPDTLCEHLQINDGELIVVQLTPGYCAPEGSYHSTVNQVPL
# notes: also called murine OX40L FP mIgG1; Mouse OX40L FP mIgG1
# B2: hGITRL FP wt (Fc fusion)
# chain: QLETAKEPCMAKFGPLPSKWQMASSEPPCVNKVSDWKLEILQNGLYLIYGQVAPNANYNDVAPFEVRLYKNKDMIQTLTNKSKIQNVGGTYELHVGDTIDLIFNSEHQVLKNNTYWGIILLANPQFIS
# notes: not shown: detection with anti-FLAG antibody implies a FLAG e
# B3: hGITRL FP N92D (Fc fusion, not shown: a dimerising Fc or GST)
# chain: LQLETAKEPCMAKFGPLPSKWQMASSEPPCVNKVSDWKLEILQDGLYLIYGQVAPNANYNDVAPFEVRLYKNKDMIQTLTNKSKIQNVGGTYELHVGDTIDLIFNSEHQVLKNNTYWGIILLANPQFIS
# B4: hGITRL FP N104D (Fc fusion, not shown: a dimerising Fc or GST)
# chain: B3 chain with D44N, N56D
# notes: also called N104D GITRL FP
# B5: hexameric GITRL FP (Langerin wt) (Fc fusion, not shown: a dimerising Fc or GST; small tags and cut ends)
# chain (part 1 of 2): ASALNTKIRALQGSLENMSKLLKRQNDILQVVS
# chain (part 2 of 2): B3 chain with D44N
# B6: hGITRL FP N161D (Fc fusion)
# chain: B2 chain with N112D
# notes: as for B2
# B7: hGITRL FP N129A (Fc fusion)
# chain: B3 chain with D44N, N81A
# notes: also called N129A mutated hGITRL FP; not shown: detection with anti-FLAG antibody implies a FLAG e
# B8: hGITRL FP N129A/N161D (Fc fusion)
# chain: B3 chain with D44N, N81A, N113D
# notes: as for B2
# B9: hexameric GITRL FP (GCN4 pII) (Fc fusion, not shown: a dimerising Fc or GST; small tags and cut ends)
# chain (part 1 of 2): not shown
# chain (part 2 of 2): B3 chain with D44N
# B10: hexameric GITRL FP (Matrilin 1 wt) (Fc fusion, not shown: a dimerising Fc or GST; small tags and cut ends)
# chain (part 1 of 2): CACESLVKFQAKVEGLLQALTRKLEAVSKRLAILENTVV
# chain (part 2 of 2): B3 chain with D44N
# B11: hexameric GITRL FP (Matrilin 1 variant) (Fc fusion, not shown: a dimerising Fc or GST; small tags and cut ends)
# chain (part 1 of 2): B10 chain (part 1 of 2) with L17I, L31I
# chain (part 2 of 2): B3 chain with D44N
# B12: hexameric GITRL FP (Coronin 1a wt) (Fc fusion, not shown: a dimerising Fc or GST; small tags and cut ends)
# chain (part 1 of 2): VSRLEEEMRKLQATVQELQKRLDRLEETVQAK
# chain (part 2 of 2): B3 chain with D44N
# B13: hexameric GITRL FP (Coronin 1a variant) (Fc fusion, not shown: a dimerising Fc or GST; small tags and cut ends)
# chain (part 1 of 2): ISRIEEEIRKINATVQELQKRIDRLEETVQAK
# chain (part 2 of 2): B3 chain with D44N
# B14: hexameric GITRL FP (DMPK wt) (Fc fusion, not shown: a dimerising Fc or GST; small tags and cut ends)
# chain (part 1 of 2): EAEAEVTLRELQEALEEEVLTRQSLSREMEAIRTDNQNFASQLREAEARNRDLEAHVRQLQERMELLQAE
# chain (part 2 of 2): B3 chain with D44N
# B15: hexameric GITRL FP (DMPK variant) (Fc fusion, not shown: a dimerising Fc or GST; small tags and cut ends)
# chain (part 1 of 2): IAEIEVTIRELQEAIEEEVLTRQSLSREIEAIRTDIQNIASQLREIEARIRDLEAHVRQLQERMELLQAE
# chain (part 2 of 2): B3 chain with D44N
# B16: hexameric GITRL FP (Langerin variant) (Fc fusion, not shown: a dimerising Fc or GST; small tags and cut ends)
# chain (part 1 of 2): ISALNTKIRAIQGSIENMSKLIKRQNDIIQVVS
# chain (part 2 of 2): B3 chain with D44N
# Molecular target: T1, recombinant mouse GITR-Fc
# Assay: ELISA, coated mouse GITR-Fc, HRP anti-mouse Fc
# Description: (§1) Recombinant mouse GITR-Fc and OX40-Fc (R&D Systems) glycoproteins were coated overnight at 1 μg/mL in PBS onto 96-well plates (Greiner). Plates were washed with PBST (PBS+0.01% Tween-20), blocked for 1 hour at room temperature with PBS containing 1% (w/v) BSA, and washed in PBST again. Twenty-five microlitres of 1 μg/mL mouse GITRL or OX40L FPs diluted in assay buffer [PBS+1% bovine serum albumin (BSA)] was added to wells, and plates were incubated for 2 hours at room temperature. After 3 washes, 25 μL of 1 μg/mL horseradish peroxidase-conjugated anti-mouse Fc antibody (Sigma) diluted in assay buffer was added to each well, and plates were incubated for 1 hour. After incubation, plates were washed 3 times in PBST, 25 μL of tetramethylbenzidine substrate solution (KPL) was added to each well, and plates incubated for 5 minutes. After incubation 15 μL of 0.5 M sulphuric acid stop solution was added to all wells. The optical density at 450 nm was measured using an EnVision plate reader (PerkinElmer).
row,Binder,binding result
1,B1,no binding

# Molecular target: T2, human GITR-Fc
# Assay: HTRF competition: titrated FP against binding of GITRL-HA (anti-HA XL665) to europium cryptate hGITR-Fc
# Description: (§2) The effect of the GITRL FP molecules on human GITRL binding to human GITR was determined using a Homogeneous Time Resolved Fluorescence (HTRF) assay.
# (§3) The GITRL FP molecules were titrated into an HTRF assay in which binding of GITRL-HA (hemagglutinin tag) to GITR-Fc was measured. The human GITR Fc was conjugated with europium cryptate and an anti-HA antibody conjugated with XL665 was used to detect the GITRL-HA protein. IC₅₀ values were determined by curve fitting the analyzed data to a four parameter logistic equation with Prism 5.01 software (GraphPad).
row,Binder,IC50 [nM]
1,B2,0.631
2,B3,0.587
3,B4,0.529

# Molecular target: T2, human GITR-Fc
# Assay: HTRF competition; competitor GITRL-HA on GITR-Fc
# Description: as §3, with “The hexameric GITRL FP” for “The GITRL FP”
# The effect of a hexameric GITRL IgG1 FP having the monomeric GITRL IgG1 FP subunit sequence of SEQ ID NO: 6 on human GITRL binding to human GITR was determined using a Homogeneous Time Resolved Fluorescence (HTRF) assay. The GITRL IgG1 FP was titrated into an HTRF assay in which binding of GITRL-HA (hemagglutinin tag) to GITR-Fc was measured. The human GITR-Fc was conjugated with europium cryptate and an anti-HA antibody conjugated with XL665 was used to detect the GITRL-HA protein. IC₅₀ values were determined by curve fitting the analyzed data to a four parameter logistic equation with Prism 6.0x software (GraphPad).
row,Binder,fold lower potency than GITRL FP (GCN4) [fold]
1,B5,8

# Molecular target: T2, human GITR-Fc
# Assay: HTRF direct binding, Eu cryptate hGITR-Fc and anti-FLAG XL665, one site saturation fit
# Description: The hGITRL FP molecules were titrated into an HTRF assay in which binding of the hGITRL FP to hGITR-Fc was measured. The human hGITR Fc was conjugated with europium cryptate and an anti-FLAG antibody conjugated with XL665 was used to detect the hGITRL FP protein. KD values were determined by curve fitting the analyzed data to a one site saturation binding equation with Prism 5.01 software (GraphPad).
row,Binder,Kd [nM]
1,B2,1.23
2,B6,1.08
3,B7,3.77
4,B8,11.8

# Molecular target: T2, human GITR-Fc
# Assay: HTRF competition: titrated FP against binding of GITRL-HA (anti-HA XL665) to europium cryptate hGITR-Fc
# Remark: another data set of the same source
# Description: as §2, §3
row,Binder,IC50 [nM]
1,B2,0.696
2,B6,0.63

# Molecular target: T3, human GITR expressed on cells
# Assay: cell-based or functional assay
row,Binder,"EC50 (nM), human GITR transfected NF-κB luciferase gene reporter cell line [nM]"
1,B9,1.02
2,B10,1.12
3,B11,0.9
4,B12,0.95
5,B13,0.74
6,B14,1.37
7,B15,1.39
8,B5,1.54
9,B16,0.75

# Molecular target: T4, recombinant mouse OX40-Fc
# Assay: ELISA, coated mouse OX40-Fc, FP at 1 ug/mL, HRP anti-mouse Fc
# Description: as §1
row,Binder,binding result
1,B1,binds

# Molecular target: T2, human GITR-Fc
# Assay: HTRF competition; competitor GITRL-HA on GITR-Fc
# Remark: another data set of the same source
# Description: The effect of the hexameric GITRL FP molecules on human GITRL binding to human GITR was determined using a Homogeneous Time Resolved Fluorescence (HTRF) assay.
# as §3, with “The hexameric GITRL FP” for “The GITRL FP”
row,Binder,IC50 [nM]
1,B9,1.06
2,B10,1.36
3,B11,0.83
4,B12,0.61
5,B13,1.44
6,B14,2.73
7,B15,2.43
8,B5,8.05
9,B16,2
